“And” between values parts separate entries of the source, which are not always exact repeats. Identical values can stand only once.
T1: human GnRH receptor (hGnRH-R) (human, UniProt P30968 1-328)
T1 sequence (looked up): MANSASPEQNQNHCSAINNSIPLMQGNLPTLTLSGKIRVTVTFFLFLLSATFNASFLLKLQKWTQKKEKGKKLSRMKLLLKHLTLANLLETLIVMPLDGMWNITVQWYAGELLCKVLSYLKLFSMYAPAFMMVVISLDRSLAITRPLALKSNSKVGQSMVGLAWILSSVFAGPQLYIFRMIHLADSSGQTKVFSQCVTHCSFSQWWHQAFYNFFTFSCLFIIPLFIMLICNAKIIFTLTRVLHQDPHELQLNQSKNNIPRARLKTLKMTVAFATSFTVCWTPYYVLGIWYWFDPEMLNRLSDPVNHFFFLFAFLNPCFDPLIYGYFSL

B1: disorazole Z mono hemi succinyl [D-Lys^6]LHRH (16) (peptide)
peptide: XHWSYKLRPG
modifications: Glp (pyroglutamate) at 1; D-Lys at 6, joined through a succinyl linker to disorazole Z; C-terminal amide
B2: disorazole E1 mono hemi succinyl [D-Lys^6]LHRH, both regio-isomers (13) & (14) (peptide)
peptide: XHWSYKLRPG
modifications: Glp (pyroglutamate) at 1; D-Lys at 6, joined through a succinyl linker to disorazole E1; C-terminal amide
B3: disorazole Z bis hemi glutaryl [D-Lys^6]LHRH (17) (peptide)
peptide: XHWSYKLRPG
modifications: Glp (pyroglutamate) at 1; D-Lys at 6, joined through a glutaryl linker to disorazole Z; C-terminal amide

Molecular target: T1, human GnRH receptor (hGnRH-R)
Experiment: cell-based or functional assay

Molecule	proliferation status after 96 h (vital cells, untreated control = 100%), hGnRH-R positive cell line 5C6, 100 nM (% of untreated control)	proliferation status after 96 h (vital cells, untreated control = 100%), hGnRH-R positive cell line 5C6, 0.1 nM	proliferation status after 96 h (vital cells, untreated control = 100%), hGnRH-R positive cell line 5C6, 1 nM	proliferation status after 96 h (vital cells, untreated control = 100%), hGnRH-R positive cell line 5C6, 10 nM	proliferation status after 96 h (vital cells, untreated control = 100%), hGnRH-R positive cell line 5C6, 100 nM
AN-152 (peptide)	42.1 and 43.9				
B1		83.8 % of untreated control	80.9 % of untreated control	54.1 % of untreated control	21.9 % of untreated control
B2		85.9 % of untreated control	80.8 % of untreated control	45.9 % of untreated control	14.6 % of untreated control
B3		95.5 % of untreated control	85.9 % of untreated control	58.5 % of untreated control	41.7 % of untreated control
